Results on two molecules are retold here after publication PMC3196243 (Biochemistry, 2011).

Like-named read-outs stand apart in the source and are kept apart here.

B1: S100B (natural protein)
chain: SELEKAMVALIDVFHQYSGREGDKHKLKKSELKELINNELSHFLEEIKEQEVVDKVMETLDNDGDGECDFQEFMAFVAMVTTACHEFFEHE

Assay [1] concerns the target T1, His6-IC3 (third intracellular loop of the dopamine D2S receptor, R217-Q345) (UniProt P61169-2 217-345).
T1 sequence (looked up): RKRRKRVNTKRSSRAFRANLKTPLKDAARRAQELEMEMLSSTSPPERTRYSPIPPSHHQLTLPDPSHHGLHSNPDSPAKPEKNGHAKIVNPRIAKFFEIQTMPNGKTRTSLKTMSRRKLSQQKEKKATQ
The assay is described as follows: pull-down.

For assay [2], the target named is B1. The assay is described as follows: NMR titration.
Assay [3] deals with B1. As to the kind of experiment: NMR titration. This is another data set of the same source.

Regarding B1, the binding result in assay [1] is on record as “binds”.

B2: IC3-C58 (domain or fragment, UniProt P61169-2 288-345, looked up)
chain: SNPDSPAKPEKNGHAKIVNPRIAKFFEIQTMPNGKTRTSLKTMSRRKLSQQKEKKATQ
Broadly, the Kd is the free concentration of one partner at which half of the binding sites on the other are occupied at equilibrium, for simple one-to-one binding. For B2, the dissociation constant (Kd) with S100B [2] stood at 274 ± 58 µM; in the assay with S100B [3] it was 1 ± 1 µM.
